Data: patent US20240018229A1 (published 2024)
Where a chain is given by its changes, count along the chain named. Values belong to the binder of their own block, whether it stands above or below them.

Assays:
[1] = target: T1, recombinant human CXCL1 protein (human, UniProt P09341 35-107); experiment: ELISA, human CXCL1 coated 30 ng per well, IgG 1/10 dilute original, donkey anti-human HRP, TMB
T1 construct: also called human chemokine CXCL1; soluble recombinant human CXCL1
T1 sequence: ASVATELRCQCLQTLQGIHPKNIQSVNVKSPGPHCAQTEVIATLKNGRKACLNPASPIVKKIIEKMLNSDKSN
Method: The human CXCL1 protein was coated onto 96-well, 30 ng for well at 4° C. overnight. The plate was blocked by 3% skim milk in PBS 2 h at room temperature. The plate was washed 3 times with PBST and applied anti-human CXCL1 humanized version IgG antibodies were diluted 1/100 and 1/10 in PBS and subjected into antigen coated plate for 1 h at room temperature. The donkey anti-human monoclonal antibody with HRP conjugate antibody was diluted 1/3000 and applied for 45 min at room temperature, afterwards washed 3 times with PBST and developed with TMB solution.

[2] = target: T2, mouse CXCL1 (mouse, UniProt P12850 25-96, limits assumed); experiment: immunoblot strip (the text does not name the assay); 10, 20 and 30 ng of CXCL1 of each species loaded
T2 sequence (looked up): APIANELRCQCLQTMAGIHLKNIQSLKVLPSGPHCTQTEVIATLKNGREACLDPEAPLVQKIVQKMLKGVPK

[3] = target: T3, rat CXCL1 (rat, UniProt P14095 25-96, limits assumed); experiment: as above
T3 sequence (looked up): T2 sequence (looked up) with I3V, M15V, L20F, L29M, S31P, L58M

[4] = target: T1, recombinant human CXCL1 protein; experiment: apparent affinity-binding constant, in PBS; method not stated; in PBS
[5] = target: T1, recombinant human CXCL1 protein; experiment: apparent affinity-binding constant, in serum 1:40 dilution; method not stated; serum, 1:40 dilution
[6] = target: T1, recombinant human CXCL1 protein; experiment: apparent KD from the absorbance (450 nm) curve in human serum diluted 1:4

ELISA signals [1]: 2.1
B1: Hum2401 IgG antibody (antibody, V domains shown)
VH: QVQLVESGGGLVQPGGSLRLSCKASGYTFTSYYIYWVRQAPGKGLEWIGEIDPSHGGPTFNEKFKNRFTISRDNSKNTLYLQMNSLRAEDTAVYYCTRESGTGAMDYWGQGTLVTVSS
VL: DIQMTQSPSSLSASVGDRATISCKASQSVDYDGDSYVNWYQQKPGKAPKLLIYAASNLESGIPSRFSGSGSGTDFTLTISSLQPEDFATYYCQQSSEDPWTFGQGTKVEIKR
notes: also called Hum2401 Ab; Pcmvdhfr-Hum2401(H+L)

binding result [2]: no binding (tested: 30 ng) | binding result [3]: no binding (tested: 30 ng) | Kd [4]: 0.176 µg/mL | Kd [5]: 0.252 µg/mL | Kd [6]: 0.387 µg/mL
B2: anti-CXCL1 neutralizing monoclonal mouse antibody (HL2401) (antibody, V domains shown)
VH: EVKLVESGAELVKPGASVKLSCKASGYTFTSYYIYWVKQRPGQGLEWIGEIDPSHGGPTFNEKFKNKATLTVDKSSSTAYMQLSSLTSDDSAVYYCTRESGTGAMDYWGQGTTLTVSS
VL: DIVLTQSPASLAVSLGQRATISCKASQSVDYDGDSYVNWYQQKPGQPPKLLIYAASNLESRIPARFSGSGSGTDFTLNILPVEEDDGATYYCQQSSEDPWTFGGGTKLEIKR
notes: also called CXCL1 mAb (HL2401); mouse anti-human CXCL1 antibody HL2401
